Read-outs that look alike come from different tables or passages of the source.
B3: human BMP2 (Bone Morphogenetic Protein 2), disulfide-linked dimer (ligand)
chain: QAKHKQRKRLKSSCKRHPLYVDFSDVGWNDWIVAPPGYHAFYCHGECPFPLADHLNSTNHAIVQTLVNSVNSKIPKACCVPTELSAISMLYLDENEKVVLKNYQDMVVEGCGCR
B8: full length ectodomain of human RGMB (eRGMB) (domain or fragment)
chain: QCRIQKCTTDFVSLTSHLNSAVDGFDSEFCKALRAYAGCTQRTSKACRGNLVYHSAVLGISDLMSQRNCSKDGPTSSTNPEVTHDPCNYHSHAGAREHRRGDQNPPSYLFCGLFGDPHLRTFKDNFQTCKVEGAWPLIDNNYLSVQVTNVPVVPGSSATATNKITIIFKAHHECTDQKVYQAVTDDLPAAFVDGTTSGGDSDAKSLRIVERESGHYVEMHARYIGTTVFVRQVGRYLTLAIRMPEDLAMSYEESQDLQLCVNGCPLSERIDDGQGQVSAILGHSLPRTSLVQAWPGYTLETANTQCHEKMPVKDIYFQSCVFDLLTTGDANFTAAAHSALEDVEALHPRKERWHIFPSSG

Tests used:
[1] = target: human BMP2 (Bone Morphogenetic Protein 2), disulfide-linked dimer (human) (UniProt P12643); experiment: SPR
[2] = target: B3; experiment: SPR
[3] = target: B3; experiment: SEC-MALS
[4] = target: B8; experiment: SAXS
[5] = target: T1, full length ectodomain of human RGMC (eRGMC) (human, UniProt Q6ZVN8 36-400); experiment: SPR
T1 sequence: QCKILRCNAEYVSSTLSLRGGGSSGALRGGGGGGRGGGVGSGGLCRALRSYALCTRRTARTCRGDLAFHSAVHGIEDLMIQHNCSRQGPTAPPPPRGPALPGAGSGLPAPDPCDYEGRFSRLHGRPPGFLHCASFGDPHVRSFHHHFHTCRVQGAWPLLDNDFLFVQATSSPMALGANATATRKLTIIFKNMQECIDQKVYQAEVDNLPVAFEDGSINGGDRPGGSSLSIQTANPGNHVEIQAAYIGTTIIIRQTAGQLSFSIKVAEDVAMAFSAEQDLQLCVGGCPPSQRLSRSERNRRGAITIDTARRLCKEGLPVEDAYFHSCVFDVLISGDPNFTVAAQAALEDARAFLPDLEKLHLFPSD

[6] = target: B8; experiment: SPR
crystal structure = target: the molecule itself; experiment: crystal structure
[7] = target: B3; experiment: SPR; remark: listed apart in the source
[8] = target: B3; experiment: crystal structure
[9] = target: B3; experiment: SAXS
[10] = target: B3; experiment: crystal structure; remark: listed apart in the source
[11] = target: B8; experiment: crystal structure

Molecule: RGMC H104A mutant (from UniProt Q6ZVN8 36-147) (domain or fragment)
- Kd [1]: 280 nM

B1: secreted ectodomain of human BMPR1A (eBMPR1A) (receptor)
chain: TLAPEDTLPFLKCYCSGHCPDDAINNTCITNGHCFAIIEEDDQGETTLASGCMKYEGSDFQCKDSPKAQLRRTIECCRTNLCNQYLQPTLPPV
- Kd [2]: 280 nM
- stoichiometry N [3]: 2 eBMPR1A per disulfide-linked BMP2 dimer (printed 2:2)

B2: mouse NEO1 FN5-FN6 with juxtamembrane stretch (NEO1FN56M) (domain or fragment)
chain: TPMMPPVGVQASILSHDTIRITWADNSLPKHQKITDSRYYTVRWKTNIPANTKYKNANATTLSYLVTGLKPNTLYEFSVMVTKGRRSSTWSMTAHGATFELVPTSPPKDVTVVSKEGKPRTIIVNWQPPSEANGKITGYIIYYSTDVNAEIHDWVIEPVVGNRLTHQIQELTLDTPYYFKIQARNSKGMGPMSEAVQFRTPKADSSDKMPNDQALGSAGKGSRLPDLGSDYKPPMSGSNSPHGSPTSPLDSN
- stoichiometry N [4]: 1 NEO1 per eRGMB (printed 2:2:2)

Molecule: B3
- binding result [5]: binds
- binding result [6]: binds
- stoichiometry N (crystal structure): 2

B4: N-terminal domain of human RGMC (RGMCND) (domain or fragment)
chain: QCKILRCNAEYVSSTLSLRGGGSSGALRGGGGGGRGGGVGSGGLCRALRSYALCTRRTARTCRGDLAFHSAVHGIEDLMIQHNCSRQGPTAPPPPRGPALPGAGSGLPAPDP
- Kd [7]: 124 nM
- stoichiometry N [8]: 2 RGMC per BMP2 dimer

B5: RGMCND-G99R (domain or fragment)
chain: QCKILRCNAEYVSSTLSLRGGGSSGALRGGGGGGRGGGVGSGGLCRALRSYALCTRRTARTCRRDLAFHSAVHGIEDLMIQHNCSRQGPTAPPPPRGPALPGAGSGLPAPDP
- Kd [7]: 910 nM

B6: RGMCND-L101P (domain or fragment)
chain: QCKILRCNAEYVSSTLSLRGGGSSGALRGGGGGGRGGGVGSGGLCRALRSYALCTRRTARTCRGDPAFHSAVHGIEDLMIQHNCSRQGPTAPPPPRGPALPGAGSGLPAPDP
- Kd [7]: 1500 nM

B7: N-terminal domain of human RGMA (RGMAND) (domain or fragment)
chain: TSPCKILKCNSEFWSATSGSHAPASDDTPEFCAALRSYALCTRRTARTCRGDLAYHSAVHGIEDLMSQHNCSKDGPTSQPRLRTLPPAGDSQERS
- binding result [8]: binds

Molecule: B8
- stoichiometry N [9]: 2 eRGMB per BMP2 dimer (printed 2:2:2)
- stoichiometry N [10]: 2 RGMB per BMP2 dimer

B9: N-terminal domain of human RGMB (RGMBND) (domain or fragment)
chain: QCRIQKCTTDFVSLTSHLNSAVDGFDSEFCKALRAYAGCTQRTSKACRGNLVYHSAVLGISDLMSQRNCSKDGPTSSTNPEVTH
- stoichiometry N [3]: 2 RGMBND per disulfide-linked BMP2 dimer (printed 2:2)
- Kd [7]: 88 nM

B10: mouse NEO1 fifth and sixth fibronectin type III domains (NEO1FN56) (domain or fragment)
chain: TPMMPPVGVQASILSHDTIRITWADNSLPKHQKITDSRYYTVRWKTNIPANTKYKNANATTLSYLVTGLKPNTLYEFSVMVTKGRRSSTWSMTAHGATFELVPTSPPKDVTVVSKEGKPRTIIVNWQPPSEANGKITGYIIYYSTDVNAEIHDWVIEPVVGNRLTHQIQELTLDTPYYFKIQARNSKGMGPMSEAVQFRTP
- binding result [11]: binds

Source: paper PMC4456160 (Nature structural & molecular biology, 2015)
